This note sets out measurements from article PMC8406324.

The target of this assay is HTNV Gn as incorporated in virus-like particles (Hantaan virus (HTNV)). The assay is described as follows: cryo-EM structure.

By stoichiometry N is commonly meant a count of units in the complex or per binding partner.

With “HTNV Gn as incorporated in virus-like particles (natural protein)”, the stoichiometry N is 4.
